± gives the standard error. Variants at the floor of the assay were thinned out.
B1: glmS ribozyme (parent)
chain: AUAAAAGCGCCAGAACUACAGAAAUGUAGUUGACGAGGAGGAGGUUUAUCGAAUUUUCGGCGGAUGCCUCCAAA

Key:
Conditions in all cases: with glucosamine-6-phosphate
glucosamine-6-phosphate [1] = variants of: B1; test: self-cleavage kobs at 160 uM GlcN6P; higher = faster cleavage; RNA array
In short: (§1)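 Glucosamine-6-phosphate in HEPES/KCl/Mg(OAc)2 buffer, at 40 μM to 10 mM, was flowed over barcoded ribozyme variants transcribed in situ by E. coli RNA polymerase on sequenced MiSeq chips. Tracking was through a hybridised Cy3 probe at 37 °C. kobs, kcat and KM came from exponential decay fits and weighted Michaelis–Menten fits of normalised per-tile medians.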

glucosamine-6-phosphate [2] = variants of: B1; test: self-cleavage kobs at 2500 uM GlcN6P; higher = faster cleavage; RNA array
In short: as §1

glucosamine-6-phosphate [3] = variants of: B1; test: self-cleavage kobs at 640 uM GlcN6P; higher = faster cleavage; RNA array
In short: as §1

glucosamine-6-phosphate [4] = variants of: B1; test: self-cleavage kobs at 10000 uM GlcN6P; higher = faster cleavage; RNA array
In short: as §1

| Variant | self-cleavage kobs at 160 uM GlcN6P (glucosamine-6-phosphate [1]) [s⁻¹] | self-cleavage kobs at 2500 uM GlcN6P (glucosamine-6-phosphate [2]) [s⁻¹] | self-cleavage kobs at 640 uM GlcN6P (glucosamine-6-phosphate [3]) [s⁻¹] | self-cleavage kobs at 10000 uM GlcN6P (glucosamine-6-phosphate [4]) [s⁻¹] |
| --- | --- | --- | --- | --- |
| AUAAAAGCGCCAGCCCUACAGAAAUGUAGUUGACGAGGAGGAGGUUUUUCGAAUUUUCGGCGGAUGCCUCCAAA | < 1e-05 | – | – | – |
| AUAAAAGCGCCAUAACUACAGAAAUGUAGUUGACGUGGAGGAAGUUUAUCAAAUUUUCGGCGGAUGGCUUCAAA | < 1e-05 | < 1e-05 | – | – |
| AUAAAAGCGCCAAAACUACAGAAAUGUAGUUGACGAGGAGGAGGUUUAUCGAAUUUUCGGCGGAUGUCUCCAAA | 2.9e-05 ± 1.4e-05 | 0.000122 ± 1.2e-05 | 4.93e-05 ± 8.8e-06 | 0.000405 ± 9e-05 |
| AUAAAAGCGCCAAAACUACAGAAAUGUAGUUGCCGAGGAGGAGGUUUAUCGAAUAUUCGGCGGAUGCCUCCAAA | < 1e-05 | < 1e-05 | < 1e-05 | – |
| AUAAAAGCGCCACAAAUACAGAAAUGUAGUUGACGAGGAGGAGGUUUAUCGAAUUUUCGGCGGAUGCUUCCAAA | < 1e-05 | – | – | – |
| AUAAAAGCGCCAGCACUACAGAAAUGUAGUUGACGAGGAGGAGGUUUAUCGAAUUUUCGGCGCAUGCCGCCAAA | 7.07e-05 ± 2.1e-05 | 4.71e-05 ± 1.8e-05 | 6.64e-05 ± 2.3e-05 | – |
| AUAAAAGCGCCUGAACUACAGAAAUGUAGUUGACAAGGAUGAGGUUUAUCGAAUUUUCGGCGGAUGCCUCCAAA | < 1e-05 | < 1e-05 | < 1e-05 | – |
| AUAAAAGCGCCAGGGCUACAGAAAUGUAGUUGACUAGGAGGAGGUUUAUCGAAUUUUCGGCGGAUGCCUCCAAA | < 1e-05 | < 1e-05 | < 1e-05 | – |
| AUAAAAGCGCCUGAACUACAGAAAUGUAGUUGACGAGGAGGAGGUUUAUCGAAUUUUCGGCGGAUGCCGACAAA | 7.03e-05 ± 2.1e-05 | 3.11e-05 ± 1.5e-05 | 8.9e-05 ± 2.3e-05 | – |
| AUAAAAGCGCCAGCACUACAGAAAUGUAGUUGACGAGGUGGAGGUUUAUCGAAUUAUCGGCGUAUGCCUCCAAA | < 1e-05 | – | – | – |
| AUAAAAGCGCCACAACUACAGAAAUGUAGUUGACGAGGCGGAGGUUUAUCGACUUUUCGGCGGAUGCCUCCAAA | < 1e-05 | – | – | – |
| AUAAAAGCGCCUGAACUACAGAAAUGUAGUUGACGAGGAGGAGGGUUAUCGAAUUAUCGGCGGAUGCCUCCAAA | 0.000953 ± 0.00021 | – | 0.00298 ± 0.0006 | – |
| AUAAAAGCGCCAGGACUACAGAAAUGUAAUUGACGUGGAGGAGGUUCAUCGAAUUUUCGGCGGAUGUCUCCAAA | < 1e-05 | – | < 1e-05 | – |
| AUAAAAGCGCCUGAACUACAGAAAUGUAGUUGACGAGGAGUAGGAUUAUCGAAUUUUCGGCGGAUGCCUCCAAA | 0.00011 ± 2.8e-05 | 0.000989 ± 0.00025 | 0.000308 ± 5.9e-05 | – |
| AUAAAAGCGCCAUUACUACAGAAAUGUAGUUGACGAGGAGGAGGUUUAUCGAAUUUUAGGCGGAUGUCUCCAAA | 5.09e-05 ± 1.8e-05 | 0.000334 ± 7.5e-05 | 0.000194 ± 4.3e-05 | – |
| AUAAAAGCGCCACGACUACAGAAAUGUAGUUGACGAGGAGGAGGUUUAUCGAAUGUUCUGCGGAUGCGUCCAAA | 0.000122 ± 5.4e-05 | 9.91e-05 ± 3.7e-05 | 0.000281 ± 7e-05 | – |

| Variant | self-cleavage kobs at 160 uM GlcN6P (glucosamine-6-phosphate [1]) [s⁻¹] | self-cleavage kobs at 2500 uM GlcN6P (glucosamine-6-phosphate [2]) [s⁻¹] | self-cleavage kobs at 640 uM GlcN6P (glucosamine-6-phosphate [3]) [s⁻¹] | self-cleavage kobs at 10000 uM GlcN6P (glucosamine-6-phosphate [4]) [s⁻¹] |
| --- | --- | --- | --- | --- |
| AUAAAAGCGCCAUAACUACAGAAAUGUAGUUGACGAGGAGGUGGUUUAUCGAAUUUUCGGCGGAUGCCUCCAAA | < 1e-05 | < 1e-05 | < 1e-05 | – |
| AUAAAAGCGCCAAAACUACAGAAAUGUAGUUGAGGAGGAGGAGGUUUAUCGAAUUUUCGGCUGAUGCCUCCAAA | < 1e-05 | – | < 1e-05 | – |
| AUAAAAGCGCCUCAACUACAGAAAUGUAGUUGACGAGGAGGAGGUUGAUCGAAUUUUCGCCGGAUGCCUCCAAA | < 1e-05 | < 1e-05 | – | – |
| AUAAAAGCGCCACAACUACAGAAAUGUAGUUGACGAGGAGGAGGUUUAUCGAAUUUUCGGCGGAUGCUUCUAAA | < 1e-05 | – | < 1e-05 | – |
| AUAAAAGCGCCAAAACUACAGAAAUGUAGUUGACGAGGAGGAGGUUUAUGGAAUUUUCGGGGGAUGCCUCCAAA | 0.000169 ± 2.6e-05 | 0.000114 ± 2.2e-05 | 0.000203 ± 3.6e-05 | – |
| AUAAAAGCGCCUGAACUACAGAAAUGUAGUGGACGAGGAGGAGGUUUAUCGAAUUUUCGGCGGAUGCCCCCAAA | 0.000336 ± 6.5e-05 | 0.0026 ± 0.00042 | 0.000408 ± 0.00019 | – |
| AUAAAAGCGCCAUAACUACAGAAAUGUAGUUAACGAGGAGCAGGUUUAUCGAAUUUUCGGCGUAUGCCUCAAAA | < 1e-05 | < 1e-05 | < 1e-05 | – |
| AUAAAAGCGCCAGGACUACAGAAAUGUAUUUGACGAGGAGGAGGUUUAUCGCAUUUUCGGCGGAUGCAUCCAAA | 0.000918 ± 0.00046 | – | 0.000113 ± 4.7e-05 | – |
| AUAAAAGCGCCAGCACUACAGAAAUGUAGGUGACGUGGAGGAGGUUUAUCGAGUUUUCGGCGGAUGCCUCCAAA | < 1e-05 | < 1e-05 | < 1e-05 | – |
| AUAAAAGCGCCACAACUACAGAAAUGUAGUUGACGAGGAGGAGGUUUAUGGAAUUUUCGGCGGAUGCCUCCAAA | 0.00119 ± 0.00034 | – | – | – |
| AUAAAAGCGCCAAAACUACAGAAAUGUAGUUGACGAGGAGGGUGUUUAUCGAAUUUUCGGCGGAUGCCUACAAA | < 1e-05 | – | < 1e-05 | < 1e-05 |
| AUAAAAGCGCCGGAACUACAGAAAUGUAGUUGACGAGGAGGAGGUUAAUCGAAUUUUCGGCGGAUGCCUUCAAA | 5.89e-05 ± 2.2e-05 | 0.000394 ± 9.5e-05 | 0.000192 ± 3e-05 | – |
| AUAAAAGCGCCAUAACUACAGAAAUGUAGUUUAAUAGGAGGAGGUUUAUCGAAUUUUCGGCGGAUGCCUCCAAA | < 1e-05 | < 1e-05 | < 1e-05 | – |
| AUAAAAGCGCCACAACUACAGAAAUGUAGUUGAGCAGGAGGAUGUUUCUCGAAUUUUCGGCGGAUGGCUUCAAA | < 1e-05 | – | < 1e-05 | – |
| AUAAAAGCGCCAUAACUACAGAAAUGUAGUCGUCGAGGAGAACGUUUAUCGAAUUUUCGGCGGAUGCCUCCAAA | < 1e-05 | – | – | – |

Source: the supplement of paper PMC7125110
